Test results taken from US20080299108A1, “Peptides for Diagnostic and Therapeutic Methods for Celiac Sprue” (priority 2005, published 2008).
“Also recorded” adds a separate entry of the source. Values belong to the molecule of their own block, whether it stands above or below them. Where no end group is shown, it is not given here.

Experiments:
HLA-DQ2 = biological target: T1, HLA-DQ2 (Homo sapiens, UniProt P01909+P01920, A45G/A70V/D89A/E106A/E77G/E98D/H199R/L107V/N214S/P84L/P87L/T103K/T109R/T172A/T60S/V78E/V99I/Y58L/Y62S/Y69I/Y79F); experiment: Peptide exchange assay (HPSEC, fluorescein-conjugated peptides); format: binding; conditions: for DQ2 binding affinity: pH 5 and pH 7; for maximum occupancy (DQ2 bound peptide): pH 7.3, 45 h; for binding maximum (DQ2 bound peptide as percentage of total peptide): pH 5.5, 37° C., 45 h, 4.7 μM DQ2, 0.18 μM peptide
T1 construct: the soluble extracellular domains of the DQ2 α and β chains were co-expressed; Fos leucine zipper, joined through a factor Xa site (C); gliadin peptide […]; Jun leucine zipper, joined through a factor Xa site (C); made in house; host or cells: High Five insect cells, pAcAB3 baculovirus
Description: FIG. 8. Equilibrium occupancy of individual peptides listed in Table 1 in the DQ2 binding pocket, as measured by peptide exchange assays. Measurements were made at (A) pH 5.5 and (B) pH 7.3. 4.7 μM DQ2 was mixed with 0.18 μM fluorescein-conjugated peptide at 37° C. for 45 h, and the abundance of DQ2 bound peptide was calculated as a percentage of total peptide.
DQ2 expression and purification. Soluble DQ2 molecules were expressed and purified as previously described. Briefly, the soluble extracellular domains of the DQ2 α and β chains were co-expressed in High Five insect cells using a pAcAB3 baculovirus expression system, and were affinity-purified using the anti-DQ2 mAb 2.12.E11. […] A complementary Fos/Jun leucine zipper pair was engineered at the C-terminal ends of α and β chains, respectively, with intervening factor Xa proteolysis sites, to increase the heterodimer stability during protein expression.
The concentration of HLA-DQ2 was determined by UV spectrophotometry at 280 nm using the absorption coefficient factor 75,700 cm^−1M^−1 as calculated from the contents of tyrosine, tryptophan and cystine in the DQ2 sequence (22). Prior to use in binding experiments with exogenous ligands, the DQ2-ligand fusion protein was first treated with ˜2% w/w thrombin in pH 7.3 PBS at 0° C. for 2 h.
Peptide exchange assay. For peptide exchange experiments, the DQ2 heterodimer purified as described above was incubated with fluorescein-conjugated ligands in a 25:1 ratio (i.e. 4.7 μM DQ2 with 0.18 μM fluorescent peptide). Incubations were performed at 37° C. in a 1:1 mixture of PBS buffer (10 mM Pi, 150 mM NaCl, pH 7.3, supplemented with 0.02% NaN3) and McIlvaine's citrate-phosphate buffers (pH 5 or pH 7) such that the final pH was either 5.5 or 7.3, respectively. Peptide binding was measured by high performance size exclusion chromatography (HPSEC) (17). 1 μl of reaction mixture was diluted into 14 μl PBS. 12.5 μl of the diluted material was injected onto a BioSep 3000 size exclusion column (Phenomenex), and eluted with PBS buffer at 1 ml/min. The DQ2-peptide complex eluted at 8.5 min, with free peptides emerging […] later. The fluorescence signal was recorded using an in-line Shimadzu RA35 fluorescent detector with excitation wavelength set at 495 nm and emission detection set at 520 nm. Peak areas corresponding to the DQ2-peptide complex and the free peptide were used to calculate the fractional yield of the DQ2-fluoresceinated peptide complex.

[1] = system: polyclonal T cell line that recognizes all α epitopes; experiment: T cell proliferation, polyclonal T cell line (FIG. 9A); format: cell-based, human; conditions: paraformaldehyde-fixed DQ2 antigen presenting cells
Description: (§1) FIG. 9A-9B. […] Paraformaldehyde-fixed DQ2 cells were used as antigen presenting cells. (A) Proliferation of a polyclonal T cell line that recognizes all α epitopes. (B) Proliferation of a clonal T cell line that recognizes the αII epitope (peptide 3).
(§2) T cell proliferation assays. The DQ2 homozygous […] cell line (LCL) VAVY cells were irradiated with 12,000 rads of γ-irradiation or fixed with 1% paraformaldehyde for 10 minutes as indicated, and incubated with the appropriate peptides overnight in media containing 10% fetal bovine serum, 2% human serum, penicillin and streptomycin at a cell density of 2×10^6 cells/ml in 96-well plates. The next day, the volume was doubled to yield a cell density of 1×10^6 cells/ml, 50 μl of which was placed into a U-bottom 96-well plate. An equal volume of T-cells (50 μl of 1×10^6 cells/ml) was added to each well, and cells were incubated at 37° C. and 5% CO2 for 48 h, at which point 0.5 μCi/well of [methyl-^3H] thymidine (Amersham, TRK120) was added. […] After thawing, incorporated thymidine was collected on a filter mat (Wallac, 1205-401) using a Tomtec cell harvester, and counted using a Wallac 1205 Betaplate liquid scintillation counter.
(§3) To test this hypothesis, we synthesized the 20-mer peptide 5, and quantitatively compared its ability to bind DQ2 in peptide exchange and dissociation assays. […]

[2] = system: clonal T cell line that recognizes the αII epitope; experiment: T cell proliferation, clonal T cell line (FIG. 9B); format: cell-based, human; conditions: paraformaldehyde-fixed DQ2 antigen presenting cells
Description: as §1, §2, §3

[3] = system: rat brush border membrane (BBM) protein; experiment: Rat brush border membrane (BBM) digestion of gliadin peptides, LC-MS; format: in vitro ADME; conditions: for apparent half time of disappearance of the parent peptide (t1/2): 100 μM peptide, 37° C.
Description: To dissect this complex process, liquid chromatography coupled mass spectroscopy analysis (LC-MS-MS) was utilized to investigate the pathways and associated kinetics of hydrolysis of immunodominant gliadin peptides treated with rat BBM preparations. Because the rodent is an excellent small animal model for human intestinal structure and function, rat BBM was chosen as a suitable model system for these studies.
BBM fractions were prepared from rat small intestinal mucosa as described by Ahnen et al. (1982) J. Biol. Chem. 257, 12129-35. […] No proline aminopeptidase (EC 3.4.11.5) or prolyl endopeptidase activity (PEP, EC 3.4.21.26) activity was detectable (<5 μU/μg). Alkaline phosphatase and sucrase were used as control BBM enzymes with activities of 66 μU/μg and 350 μU/μg, respectively.
BBM fractions were partially purified from the small intestinal mucosa of adult female rats maintained on an ad libitum diet of wheat-based standard rodent chow. Total protein content was determined by a modified method of Lowry with BSA as a standard. Alkaline phosphatase activity was determined with nitrophenyl phosphate. Sucrase activity was measured using a coupled glucose assay.
Proteolysis with the BBM preparation was investigated using the peptide (SEQ ID NO:1) (SEQ ID NO:1) […], a product of chymotryptic digestion of α-9 gliadin (Arentz-Hansen et al. (2000) J. Exp. Med. 191, 603-12). […] It was subjected to BBM digestion, followed by LC-MS-MS analysis. A standard 50 μl digestion mixture contained 100 μM of synthetic peptide, 10 μM tryptophan and Cbz-tryptophan as internal standards, and resuspended BBM preparations with a final protein content of 27 ng/μl and exogenous proteins, as indicated, in phosphate buffered saline. After incubation at 37° C. for the indicated time, the enzymes were inactivated by heating to 95° C. for 3 minutes. The reaction mixtures were analyzed by LC-MS (SpectraSystem, ThermoFinnigan) using a C18 reversed phase column (Vydac 218TP5215, 2.1×150 mm) with water:acetonitrile:formic acid (0.1%):trifluoroacetic acid (0.025%) as the mobile phase (flow: 0.2 ml/min) and a gradient of 10% acetonitrile for 3 minutes, 10-20% for 3 minutes, 20-25% for 21 minutes followed by a 95% wash. Peptide fragments in the mass range of m/z=300-2000 were detected by electrospray ionization mass spectroscopy using a LCQ ion trap, and their identities were confirmed by MSMS fragmentation patterns.

rat jejunum = experiment: In vivo intestinal perfusion in intact adult rats; conditions: 15-20 cm segment of jejunum, residence time 20 min
[4] = system: rat small intestinal brush-border membrane (BBM) enzymes; experiment: Rat BBM digestion of peptides from α2-gliadin (12 ng/μl BBM protein); format: in vitro ADME
Description: BBM fractions were prepared from rat small intestinal mucosa.

[5] = system: pepsin, trypsin, chymotrypsin, elastase and carboxypeptidase
[6] = biological target: 33-mer α2-gliadin peptide (non-deamidated), residues 57-89
[7] = biological target: soluble HLA-DQ2 heterodimer (extracellular domains of the DQ2 α and β chains with Fos/Jun leucine zippers), thrombin-treated (human); experiment: peptide exchange kinetics, HPSEC
[8] = biological target: soluble HLA-DQ2 heterodimer (extracellular domains of the DQ2 α and β chains with Fos/Jun leucine zippers), thrombin-treated (human); experiment: peptide exchange kinetics, HPSEC, pH 7.3

- DQ2 binding affinity (HLA-DQ2): bound poorly to DQ2
Molecule: LQLQPFPQPEKPYPQPELPY [Peptide 17, L11K analogue of 20-mer peptide 5]

- DQ2 binding affinity (HLA-DQ2): bound poorly to DQ2
Molecule: LQLQPFPQPELPYPQPEKPY [Peptide 18, L18K analogue of 20-mer peptide 5]

Molecule: LQLQPFPQPELPYPQPELPY [Peptide 5]
- T cell stimulatory characteristics [1]: substantially more potent T cell antigens than the minimal αII epitope peptide 3
- T cell stimulatory capacity [2]: comparable T cell stimulatory capacity that exceeds that of peptide 3
- DQ2 binding affinity (HLA-DQ2): comparable to the 33-mer peptide 1 in all in vitro assays; also recorded: binds to DQ2 equally well as the 33-mer peptide 1

- time to half maximal DQ2 occupancy (HLA-DQ2; exchange kinetics): ~8 h
- maximum occupancy (DQ2 bound peptide) (HLA-DQ2): 28%
Molecule: LQLQPFPQPELPYPQPELPYPQPELPYPQPQPF [Peptide 1]
- T cell stimulatory characteristics [1]: substantially more potent T cell antigens than the minimal αII epitope peptide 3
- T cell stimulatory capacity [2]: comparable T cell stimulatory capacity that exceeds that of peptide 3

Molecule: LQLQPFPQPELPYPQPELPYPQPQLPYPQPQPF [Peptide 14]
- DQ2 binding affinity (HLA-DQ2): significantly enhances affinity relative to Q10E (11)

Molecule: LQLQPFPQPELPYPQPQLPYPQPELPYPQPQPF [Peptide 15]
- DQ2 binding affinity (HLA-DQ2): significantly enhances affinity relative to Q10E (11)

Molecule: LQLQPFPQPELPYPQPQLPYPQPQLPYPQPQPF [Peptide 11]
- DQ2 binding affinity (HLA-DQ2): higher affinity for DQ2 than either Q17E (12) or Q24E (13)

Molecule: LQLQPFPQPQLPYPQPELPYPQPELPYPQPQPF [Peptide 16]
- DQ2 binding affinity (HLA-DQ2): approximates the 33-mer binding characteristics

- binding maximum (DQ2 bound peptide as percentage of total peptide) (HLA-DQ2): less than 1%
- maximum occupancy (DQ2 bound peptide) (HLA-DQ2): undetectable
Molecule: PFPQPELPY [Peptide 2]

- binding maximum (DQ2 bound peptide as percentage of total peptide) (HLA-DQ2): 7%
Molecule: PQPELPYPQ [Peptide 3]

Molecule: PQPELPYPQPELPY [Peptide 6]
- DQ2 binding affinity (HLA-DQ2): considerably lower affinity for DQ2 than peptide 5

Molecule: PQPQLPYPQPQLP
- stability toward BBM digestion ([3]; 27 ng/μl rat BBM protein): highly resistant to further digestion

Molecule: QLQPFPQPQLPY
- apparent half time of disappearance of the parent peptide (t1/2) ([3]; 27 ng/μl rat BBM protein): 35 min
- digestion in the presence of exogenous DPP IV ([3]; BBM plus 6-fold excess activity of exogenous fungal DPP IV): complete digestion was observed within four hours
- fraction of peptide proteolyzed in the perfusion experiment (rat jejunum): > 90%

Molecule: RRLIEDNEYTARG
- clearance of digestive intermediates ([3]; 27 ng/μl rat BBM protein): cleared completely within one hour
- apparent half time of disappearance of the parent peptide (t1/2) ([3]; 27 ng/μl rat BBM protein): 10 min

Molecule: WQIPEQSR
- half-life of disappearance [4]: ~60 min

B1: myoglobin: another common dietary protein (protein, UniProt P02144 2-154, looked up)
Myoglobin: GLSDGEWQLVLNVWGKVEADIPGHGQEVLIRLFKGHPETLEKFDKFKHLKSEDEMKASEDLKKHGATVLTALGGILKKKGHHEAEIKPLAQSHATKHKIPVKYLEFISECIIQVLQSKHPGDFGADAQGAMNKALELFRKDMASNYKELGFQG
- stability toward gastric and pancreatic proteases [5]: rapidly broken down into much smaller products

B2: human tissue transglutaminase (tTGase) (protein)
chain: AEELVLERCDLELETNGRDHHTADLCREKLVVRRGQPFWLTLHFEGRNYEASVDSLTFSVVTGPAPSQEAGTKARFPLRDAVEEGDWTATVVDQQDCTLSLQLTTPANAPIGLYRLSLEASTGYQGSSFVLGHFILLFNAWCPADAVYLDSEEERQEYVLTQQGFIYQGSAKFIKNIPWNFGQFEDGILDICLILLDVNPKFLKNAGRDCSRRSSPVYVGRVVSGMVNCNDDQGVLLGRWDNNYGDGVSPMSWIGSVDILRRWKNHGCQRVKYGQCWVFAAVACTVLRCLGIPTRVVTNYNSAHDQNSNLLIEYFRNEFGEIQGDKSEMIWNFHCWVESWMTRPDLQPGYEGWQALDPTPQEKSEGTYCCGPVPVRAIKEGDLSTKYDAPFVFAEVNADVVDWIQQDDGSVHKSINRSLIVGLKISTKSVGRDEREDITHTYKYPEGSSEEREAFTRANHLNKLAEKEETGMAMRIRVGQSMNMGSDFDVFAHITNNTAEEYVCRLLLCARTVSYNGILGPECGTKYLLNLNLEPFSEKSVPLCILYEKYRDCLTESNLIKVRALLVEPVINSYLLAERDLYLENPEIKIRILGEPKQKRKLVAEVSLQNPLPVALEGCTFTVEGAGLTEEQKTVEIPDPVEAGEEVKVRMDLLPLHMGLHKLVVNFESDKLKAVKGFRNVIIGPA
- kcat/KM (deamidation by tTGase) [6]: kcat/KM=440 min-1 mM-1

- time to half maximal DQ2 occupancy [7]: 8 h
- maximum occupancy [8]: 28%
Molecule: {5(6)‑carboxyfluorescein}-LQLQPFPQPELPYPQPELPYPQPELPYPQPQPF [33-mer peptide 1 (deamidated 33-mer from α2-gliadin), fluorescein-conjugated]
